Experimental data reported in the Human Domainome abundance scans (Beltran et al. 2025).

B1: Formin-binding protein 4, residues 593 to 636; numbered along this chain, Q8N3X1 (parent)
chain: EINATPKGWSCHWDRDHRRYFYVNEQSGESQWEFPDGEEEEEES
B2: Serine/threonine-protein kinase A-Raf, residues 21 to 89; numbered along this chain, P10398 (parent)
chain: VKVYLPNKQRTVVTVRDGMSVYDSLDKALKVRGLNQDCCVVYRLIKGRKTVTAWDTAIAPLDGEELIVE

Variants of: B1
Assay: abundance fitness (aPCA) (normalised: wild type 0, dead -1); higher = more abundant; growth selection in yeast, the domain comes from the species named
Conditions: Homo sapiens

Abundance fitness of substitutions, site by site:
E42: F -0.368 | V -0.005
R19: T -0.621 | P -1.24 | L -0.423 | N -0.506 | Q -0.092
W9: L -0.719 | Y -0.534
H17: F -0.025 | D -0.201 | Y -0.156 | S -0.01
D36: I -0.07 | S 0.003 | Y -0.494 | E -0.113 | V -0.044 | C -0.097
P35: K -0.482 | N -0.74 | G -0.611 | R -0.661
Q26: M -0.242 | C 0.133 | S -0.071 | G -0.199
I2: R -0.006 | W -0.283 | P -0.094 | L -0.208
G8: N -0.373 | L -0.795 | R -0.621 | V -0.664 | A -0.707 | S -0.623

Variants of: B2
Assay: as above
Conditions: Homo sapiens

Abundance fitness, by site and new letter:
G63: M -0.269 | Y -0.376 | K -0.722 | F -0.279 | D -0.187 | T -0.128 | E -0.486 | V -0.097 | P -0.533 | W -0.78 | A -0.142 | S -0.107 | R -0.799 | N -0.265 | Q -0.466 | H -0.63 | C -0.055
V68: A -0.391 | I -0.127
D62: I -0.015 | S 0.036 | T -0.111 | Y -0.311 | M -0.062 | E -0.128 | N -0.051 | G -0.047 | A 0.004 | L -0.078 | C 0.13 | R -0.049 | H -0.073 | F -0.608 | K -0.097 | P -0.095
E69: L -0.889 | Q -0.6 | S -0.463 | V -0.43 | Y -0.809 | R -0.635 | P -0.693 | I -0.81 | F -0.884 | K -0.6 | D -0.248 | N -0.777 | A -0.497 | M -0.682
I67: F 0.252
P60: F -0.036 | E 0.064 | R -0.067 | W -0.199 | L 0.001 | Q 0.121 | K 0.024 | D 0.138 | Y 0.043 | C -0.221 | V -0.04 | M 0.084 | A 0.147 | H -0.06 | T 0.027 | S 0.098
L61: N -0.371 | A -0.168 | P -0.631 | M 0.017 | H -0.312 | V -0.112 | G -0.176 | K -0.142 | Q -0.088 | D -0.365 | I -0.206 | T -0.23 | R -0.108 | W -0.297 | E -0.25 | S -0.156 | C -0.367
E65: I -0.088 | P -0.26 | S -0.124 | Y -0.305 | L -0.349 | T -0.01 | M -0.34 | A -0.044 | R -0.385 | W -0.515 | Q -0.184 | F -0.607 | G -0.294 | D -0.136 | C -0.122 | K -0.122 | V -0.077
A59: G 0.017 | L -0.071 | E -0.068 | T 0.054 | M 0.078 | Y 0.01 | I 0.131 | F -0.015 | D -0.08 | S 0.002 | N -0.366 | V -0.122 | R -0.007 | K -0.076 | W -0.14 | Q -0.008 | P -0.646
E64: W -0.215 | A -0.206 | S -0.112 | G -0.25 | H -0.339 | V -0.259 | M -0.085 | L -0.01 | F -0.867 | T -0.006 | C -0.571 | K -0.295 | N -0.026
